Measured values published in publication PMC10071571, “Site‐directed mutagenesis improves the practical application of L‐glutamic acid decarboxylase in Escherichia coli” (Engineering in Life Sciences, 2023).

T1: Gad B (Escherichia coli, UniProt P69910)
T1 construct: gene gadB; full length (1401 bp), pET-30a(+) His tag, expressed in E. coli BL21(DE3), Ni-NTA purified; about 53 kDa on SDS-PAGE; homo-hexamer
T1 sequence (P69910 1-466): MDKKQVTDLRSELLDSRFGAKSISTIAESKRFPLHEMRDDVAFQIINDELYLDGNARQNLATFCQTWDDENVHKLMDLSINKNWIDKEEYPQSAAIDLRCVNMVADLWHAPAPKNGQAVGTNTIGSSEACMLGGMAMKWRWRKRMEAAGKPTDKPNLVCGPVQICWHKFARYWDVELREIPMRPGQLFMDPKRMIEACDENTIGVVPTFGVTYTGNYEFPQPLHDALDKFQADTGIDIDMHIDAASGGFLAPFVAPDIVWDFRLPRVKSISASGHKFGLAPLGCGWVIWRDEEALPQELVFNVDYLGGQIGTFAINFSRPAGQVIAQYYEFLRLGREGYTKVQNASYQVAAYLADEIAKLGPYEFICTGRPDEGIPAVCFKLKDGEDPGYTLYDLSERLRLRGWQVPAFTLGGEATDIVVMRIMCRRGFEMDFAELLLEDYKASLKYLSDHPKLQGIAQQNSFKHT

B1: Gad B (Escherichia coli K-12) (protein)
chain: T1 sequence (P69910 1-466)
notes: full length (1401 bp), pET-30a(+) His tag, expressed in E. coli BL21(DE3), Ni-NTA purified; about 53 kDa on SDS-PAGE; homo-hexamer

Key:
N[C@@H](CCC(=O)O)C(=O)O = tested on: T2, N[C@@H](CCC(=O)O)C(=O)O; assay: HPLC of GABA formed; Lineweaver-Burk plot; format: biochemical, Escherichia coli; details: substrate buffer with 0.05 mM PLP, phosphate buffer, 30 min, pH and temperature of the kinetics not given (optimum pH 4.3, 37 °C)
T2 construct: full length (1401 bp), pET-30a(+) His tag, expressed in E. coli BL21(DE3), Ni-NTA purified; about 53 kDa on SDS-PAGE; homo-hexamer
Excerpt: (§1) HPLC of GABA formed; Lineweaver-Burk plot on Gad B

Gad B = target: T1, Gad B; assay: GABA formation at varied PLP concentration (HPLC); format: biochemical; details: coenzyme added to L-glutamate reaction; no constant
[1] = substrate: N[C@@H](CCC(=O)O)C(=O)O; assay: HPLC of GABA formed; Lineweaver-Burk plot; format: biochemical, Escherichia coli; details: substrate buffer with 0.05 mM PLP, phosphate buffer, 30 min, pH and temperature of the kinetics not given (optimum pH 4.3, 37 °C)
Excerpt: as §1

Molecule	Km (N[C@@H](CCC(=O)O)C(=O)O)	Vmax (N[C@@H](CCC(=O)O)C(=O)O)	GABA formation at varied PLP concentration (HPLC) (Gad B)	Km [1]	Vmax [1]
Gad B (Escherichia coli K-12; Q309A)	7.2 ± 3.8 mM	87.3 µmol/min/mg	–	–	–
Gad B (Escherichia coli K-12; T62S)	7.3 ± 2.5 mM	76.1 µmol/min/mg	–	–	–
Cc1ncc(COP(=O)(O)O)c(C=O)c1O [PLP]	–	–	enzyme activity of wild‐type Gad B and Gad B‐T62S mutants was highest when using the coenzyme PLP	–	–
B1	–	–	–	11.3 ± 2.1 mM	32.1 µmol/min/mg
